In paper PMC2756588:

T1: Abp1, P15891
T1 sequence (P15891 535-592, looked up): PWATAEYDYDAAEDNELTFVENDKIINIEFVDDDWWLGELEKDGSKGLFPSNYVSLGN

T2: Bbc1, P47068
T2 sequence (P47068 1-78, looked up): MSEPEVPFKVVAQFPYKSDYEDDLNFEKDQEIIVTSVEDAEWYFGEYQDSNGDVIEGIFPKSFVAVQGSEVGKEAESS

T3: Boi1, P38041
T3 sequence (P38041 1-86, looked up): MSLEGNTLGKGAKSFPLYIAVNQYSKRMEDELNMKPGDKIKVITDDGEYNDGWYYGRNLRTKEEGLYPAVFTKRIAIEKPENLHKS

T4: Boi2, P39969
T4 sequence (P39969 32-116, looked up): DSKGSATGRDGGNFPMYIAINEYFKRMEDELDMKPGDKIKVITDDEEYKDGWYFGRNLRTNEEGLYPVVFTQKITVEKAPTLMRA

T5: Bud14, P27637
T5 sequence (P27637 247-328, looked up): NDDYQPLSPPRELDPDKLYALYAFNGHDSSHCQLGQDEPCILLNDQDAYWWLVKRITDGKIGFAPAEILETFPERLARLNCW

T6: Bzz1-1, P38822
T6 sequence (P38822 478-572, looked up): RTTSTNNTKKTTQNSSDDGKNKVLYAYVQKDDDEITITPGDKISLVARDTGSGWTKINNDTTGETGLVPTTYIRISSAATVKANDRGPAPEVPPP

T7: Bzz1-2, P38822
T7 sequence (P38822 568-633, looked up): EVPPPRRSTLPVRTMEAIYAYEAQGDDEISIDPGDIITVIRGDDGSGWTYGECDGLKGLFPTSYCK

T8: Cdc25, P04821
T8 sequence (P04821 50-136, looked up): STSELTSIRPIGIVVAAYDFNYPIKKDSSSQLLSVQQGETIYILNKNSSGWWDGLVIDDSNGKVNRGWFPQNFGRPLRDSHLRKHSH

T9: Cyk3, Q07533
T9 sequence (Q07533 1-83, looked up): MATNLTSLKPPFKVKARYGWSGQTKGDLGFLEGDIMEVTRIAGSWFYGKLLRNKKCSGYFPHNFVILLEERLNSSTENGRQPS

T10: Fus1, P11710
T10 sequence (P11710 432-512, looked up): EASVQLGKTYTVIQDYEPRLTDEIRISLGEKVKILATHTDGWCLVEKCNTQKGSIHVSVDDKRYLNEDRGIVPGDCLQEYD

T11: Hof1, Q05080
T11 sequence (Q05080 590-669, looked up): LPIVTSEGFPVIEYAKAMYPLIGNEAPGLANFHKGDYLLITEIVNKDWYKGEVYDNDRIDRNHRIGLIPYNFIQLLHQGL

T12: Hse1, P38753
T12 sequence (P38753 208-285, looked up): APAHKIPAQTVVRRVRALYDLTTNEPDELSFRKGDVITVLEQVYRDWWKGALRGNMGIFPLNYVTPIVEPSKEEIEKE

T13: Lsb1, P53281
T13 sequence (P53281 45-122, looked up): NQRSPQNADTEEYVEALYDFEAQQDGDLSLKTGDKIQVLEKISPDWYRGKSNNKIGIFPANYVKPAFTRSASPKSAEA

T14: Lsb3, P43603
T14 sequence (P43603 385-451, looked up): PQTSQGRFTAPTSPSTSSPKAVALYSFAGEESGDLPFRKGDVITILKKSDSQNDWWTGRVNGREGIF

T15: Lsb4, P32793
T15 sequence (P32793 402-468, looked up): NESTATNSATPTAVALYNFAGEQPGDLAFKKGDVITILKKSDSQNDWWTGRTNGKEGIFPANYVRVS

T16: Myo5, Q04439
T16 sequence (Q04439 1072-1160, looked up): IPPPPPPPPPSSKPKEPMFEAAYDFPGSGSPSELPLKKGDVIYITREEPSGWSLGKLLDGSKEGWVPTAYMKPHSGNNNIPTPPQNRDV

T17: Nbp2, Q12163
T17 sequence (Q12163 103-180, looked up): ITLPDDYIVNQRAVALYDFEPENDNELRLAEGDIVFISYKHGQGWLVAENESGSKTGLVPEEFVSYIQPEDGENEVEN

T18: Pex13, P80667
T18 sequence (P80667 295-386, looked up): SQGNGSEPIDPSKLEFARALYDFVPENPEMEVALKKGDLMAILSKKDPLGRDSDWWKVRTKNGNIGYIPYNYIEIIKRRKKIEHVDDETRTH

T19: Pin3, Q06449
T19 sequence (Q06449 53-122, looked up): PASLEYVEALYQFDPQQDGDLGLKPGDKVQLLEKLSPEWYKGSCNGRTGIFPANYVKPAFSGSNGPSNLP

T20: Sla1-2, P32790
T20 sequence (P32790 60-140, looked up): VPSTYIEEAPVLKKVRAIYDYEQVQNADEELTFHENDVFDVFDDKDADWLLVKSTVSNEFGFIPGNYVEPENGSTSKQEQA

T21: Sla1-3, P32790
T21 sequence (P32790 344-424, looked up): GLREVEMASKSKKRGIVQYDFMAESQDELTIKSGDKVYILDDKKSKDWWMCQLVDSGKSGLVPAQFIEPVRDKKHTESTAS


How the values were obtained:
Experiment in all cases: SPOT array
Abp1, P15891 = molecular target: T1, Abp1, P15891; details: median of control spots 935
Bbc1, P47068 = molecular target: T2, Bbc1, P47068; details: median of control spots 796
Bem1-1, P29366 = details: median of control spots 4282
Sequence of Bem1-1, P29366 (P29366 55-141): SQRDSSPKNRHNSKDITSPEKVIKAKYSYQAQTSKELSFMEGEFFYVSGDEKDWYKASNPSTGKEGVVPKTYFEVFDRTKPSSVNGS

Bem1-2, P29366 = details: median of control spots 4347
Sequence of Bem1-2, P29366 (P29366 139-227): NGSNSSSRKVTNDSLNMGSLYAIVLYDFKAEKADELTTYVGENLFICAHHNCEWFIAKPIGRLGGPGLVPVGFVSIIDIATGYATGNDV

Boi1, P38041 = molecular target: T3, Boi1, P38041; details: median of control spots 1162
Boi2, P39969 = molecular target: T4, Boi2, P39969; details: median of control spots 1161
Bud14, P27637 = molecular target: T5, Bud14, P27637; details: median of control spots 956
Bzz1-1, P38822 = molecular target: T6, Bzz1-1, P38822; details: median of control spots 4446
Bzz1-2, P38822 = molecular target: T7, Bzz1-2, P38822; details: median of control spots 4538
Cdc25, P04821 = molecular target: T8, Cdc25, P04821; details: median of control spots 969
Cyk3, Q07533 = molecular target: T9, Cyk3, Q07533; details: median of control spots 1451
Fus1, P11710 = molecular target: T10, Fus1, P11710; details: median of control spots 1200
GST = details: median of control spots 978
Hof1, Q05080 = molecular target: T11, Hof1, Q05080; details: median of control spots 4086
Hse1, P38753 = molecular target: T12, Hse1, P38753; details: median of control spots 1727
Lsb1, P53281 = molecular target: T13, Lsb1, P53281; details: median of control spots 388
Lsb3, P43603 = molecular target: T14, Lsb3, P43603; details: median of control spots 406
Lsb4, P32793 = molecular target: T15, Lsb4, P32793; details: median of control spots 397
Myo3, P36006 = details: median of control spots 468
Myo5, Q04439 = molecular target: T16, Myo5, Q04439; details: median of control spots 471
Nbp2, Q12163 = molecular target: T17, Nbp2, Q12163; details: median of control spots 357
Pex13, P80667 = molecular target: T18, Pex13, P80667; details: median of control spots 1341
Pin3, Q06449 = molecular target: T19, Pin3, Q06449; details: median of control spots 2171
Rvs167, P39743 = details: median of control spots 2707
Sequence of Rvs167, P39743 (P39743 419-482): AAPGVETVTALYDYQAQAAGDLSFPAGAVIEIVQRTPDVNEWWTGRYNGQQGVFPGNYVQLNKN

Sho1, P40073 = details: median of control spots 1148
Sequence of Sho1, P40073 (P40073 287-367): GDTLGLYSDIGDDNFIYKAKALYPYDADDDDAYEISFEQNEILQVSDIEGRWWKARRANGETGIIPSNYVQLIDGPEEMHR

Sla1-2, P32790 = molecular target: T20, Sla1-2, P32790; details: median of control spots 712
Sla1-3, P32790 = molecular target: T21, Sla1-3, P32790; details: median of control spots 5475

Binder | SPOT intensity (Abp1, P15891) | SPOT intensity (Bbc1, P47068) | SPOT intensity (Bem1-1, P29366) | SPOT intensity (Bem1-2, P29366) | SPOT intensity (Boi1, P38041) | SPOT intensity (Boi2, P39969) | SPOT intensity (Bud14, P27637) | SPOT intensity (Bzz1-1, P38822) | SPOT intensity (Bzz1-2, P38822) | SPOT intensity (Cdc25, P04821) | SPOT intensity (Cyk3, Q07533) | SPOT intensity (Fus1, P11710) | SPOT intensity (GST) | SPOT intensity (Hof1, Q05080) | SPOT intensity (Hse1, P38753) | SPOT intensity (Lsb1, P53281) | SPOT intensity (Lsb3, P43603) | SPOT intensity (Lsb4, P32793) | SPOT intensity (Myo3, P36006) | SPOT intensity (Myo5, Q04439) | further results
TPRLSLPRLPNKHHW | 37 | 2 | 0 | 3 | 4 | 0 | 9 | 0 | 1 | 10 | 0 | 0 | 0 | 1600 | 30 | 0 | 0 | 0 | 0 | 0 | SPOT intensity (Nbp2, Q12163): 0; SPOT intensity (Pex13, P80667): 45; SPOT intensity (Pin3, Q06449): 7; SPOT intensity (Rvs167, P39743): 2; SPOT intensity (Sho1, P40073): 35; SPOT intensity (Sla1-2, P32790): 0; SPOT intensity (Sla1-3, P32790): 0
DHPKGPPPPPPPDEK | 0 | 0 | 8 | 0 | 0 | 0 | 1 | 72 | 12 | 6 | 0 | 0 | 0 | 2 | 0 | 0 | 0 | 0 | 431 | 298 | SPOT intensity (Nbp2, Q12163): 1; SPOT intensity (Pex13, P80667): 0; SPOT intensity (Pin3, Q06449): 6; SPOT intensity (Rvs167, P39743): 0; SPOT intensity (Sho1, P40073): 0; SPOT intensity (Sla1-2, P32790): 0; SPOT intensity (Sla1-3, P32790): 12
RRSKSLPTTPGIRSG | 229 | 19 | 1 | 0 | 3 | 1 | 20 | 0 | 1 | 17 | 0 | 63 | 0 | 0 | 5 | 8 | 1 | 2 | 12 | 0 | SPOT intensity (Nbp2, Q12163): 49; SPOT intensity (Pex13, P80667): 8; SPOT intensity (Pin3, Q06449): 5; SPOT intensity (Rvs167, P39743): 0; SPOT intensity (Sho1, P40073): 1350; SPOT intensity (Sla1-2, P32790): 0; SPOT intensity (Sla1-3, P32790): 26
KNRKNLPTIPIRLSG | 333 | 25 | 4 | 16 | 3 | 2 | 3 | 0 | 4 | 5 | 1 | 24 | 0 | 26 | 2 | 1220 | 25 | 103 | 5 | 1 | SPOT intensity (Nbp2, Q12163): 47; SPOT intensity (Pex13, P80667): 13; SPOT intensity (Pin3, Q06449): 15; SPOT intensity (Rvs167, P39743): 86; SPOT intensity (Sho1, P40073): 1660; SPOT intensity (Sla1-2, P32790): 0; SPOT intensity (Sla1-3, P32790): 55

Second part, led by results:

SPOT intensity (Abp1, P15891) | SPOT intensity (Bbc1, P47068) | SPOT intensity (Bem1-1, P29366) | SPOT intensity (Bem1-2, P29366) | SPOT intensity (Boi1, P38041) | SPOT intensity (Boi2, P39969) | SPOT intensity (Bud14, P27637) | SPOT intensity (Bzz1-1, P38822) | SPOT intensity (Bzz1-2, P38822) | SPOT intensity (Cdc25, P04821) | SPOT intensity (Cyk3, Q07533) | SPOT intensity (Fus1, P11710) | SPOT intensity (GST) | SPOT intensity (Hof1, Q05080) | SPOT intensity (Hse1, P38753) | SPOT intensity (Lsb1, P53281) | SPOT intensity (Lsb3, P43603) | SPOT intensity (Lsb4, P32793) | SPOT intensity (Myo3, P36006) | SPOT intensity (Myo5, Q04439) | Binder | further results
109 | 5 | 0 | 1 | 2 | 0 | 5 | 2 | 4 | 2 | 1 | 0 | 0 | 0 | 1 | 0 | 0 | 2 | 0 | 0 | SRSKPLPLTPNSKYN | SPOT intensity (Nbp2, Q12163): 0; SPOT intensity (Pex13, P80667): 21; SPOT intensity (Pin3, Q06449): 19; SPOT intensity (Rvs167, P39743): 1; SPOT intensity (Sho1, P40073): 1030; SPOT intensity (Sla1-2, P32790): 3; SPOT intensity (Sla1-3, P32790): 7
76 | 0 | 5 | 0 | 1 | 1 | 0 | 1 | 7 | 0 | 0 | 0 | 1 | 11 | 1 | 6 | 21 | 41 | 72 | 68 | QLMKNLPKIPLLNDI | SPOT intensity (Nbp2, Q12163): 10; SPOT intensity (Pex13, P80667): 162; SPOT intensity (Pin3, Q06449): 78; SPOT intensity (Rvs167, P39743): 0; SPOT intensity (Sho1, P40073): 861; SPOT intensity (Sla1-2, P32790): 5; SPOT intensity (Sla1-3, P32790): 2
